Measured values published in patent EP0866075B1 (Arpida AG,, dated 1998).
No end group written: not given here.

Each binder was assayed against T1, enzyme I (phosphoenolpyruvate-protein phosphotransferase, EC 2.7.3.9) of the E. coli phosphotransferase system (E. coli, UniProt P08839 1-575) (assay: cell-based or functional assay).
With KKWHRRKK [peptide 7 KKWHRRKK] the “inhibition IC50” value was 300 µM and the “uncoupling P;Ipeptide/h” value was 0.29 Pi/peptide/h.
KGWHKRKK [peptide 6 KGWHKRKK] was tested, and the “inhibition IC50” value was 530 µM and the “uncoupling P;Ipeptide/h” value was 0.23 Pi/peptide/h.
KKFHLRK [peptide 1 KKFHLRK] was tested, and the “inhibition IC50” value was 150 µM and the “uncoupling P;Ipeptide/h” value was 0.49 Pi/peptide/h.
In the case of KKWHLRKR [peptide 5 KKWHLRKR], the “inhibition IC50” value is reported as 30 µM and the “uncoupling P;Ipeptide/h” value is reported as 0.3 Pi/peptide/h.
In the case of Ac-WHKR [peptide 13 Ac-WHKR], the “inhibition IC50” value is reported as 5800 µM.
KKWHKRKK [peptide 8 KKWHKRKK] was tested, and the “inhibition IC50” value was 440 µM and the “uncoupling P;Ipeptide/h” value was 0.215 Pi/peptide/h.
For WHKR [peptide 12 WHKR], the “inhibition IC50” value was 4900 µM.
With KKFHIRKR [peptide 9 KKFHIRKR] the “inhibition IC50” value was 160 µM and the “uncoupling P;Ipeptide/h” value was 0.31 Pi/peptide/h.
KKFDLRK [peptide 3 KKFDLRK] was tested, and the “inhibition IC50” value was 820 µM and the “uncoupling P;Ipeptide/h” value was 0.05 Pi/peptide/h.

Molecular target: T1, enzyme I (phosphoenolpyruvate-protein …)
Assay: cell-based or functional assay
Remark: another data set of the same source
With RHITSL [peptide 27 RHITSL] the “inhibition IC50” value was 650 µM.
RHYLLF [peptide 26 RHYLLF] was tested, and the “inhibition IC50” value was 500 µM.
With DGARLHYLF [peptide 22 DGARLHYLF] the “inhibition IC50” value was 1200 µM and the “uncoupling Pi/peptide (x IC50/h)” value was 132 Pi/peptide (x IC50/h).
In the case of KISRHGKRGK [peptide 18 KISRHGKRGK], the “inhibition IC50” value is reported as 140 µM and the “uncoupling Pi/peptide (x IC50/h)” value is reported as 1.9 Pi/peptide (x IC50/h).
With GLRFGKTRVHYLVLG [peptide 14 GLRFGKTRVHYLVLG] the “inhibition IC50” value was 25 µM and the “uncoupling Pi/peptide (x IC50/h)” value was 3.2 Pi/peptide (x IC50/h).
In the case of RLHYLF [peptide 21 RLHYLF], the “inhibition IC50” value is reported as 375 µM and the “uncoupling Pi/peptide (x IC50/h)” value is reported as 64.2 Pi/peptide (x IC50/h).
Ac-DGARLHYLF [peptide 23 AcDGARLHYLF] was tested, and the “inhibition IC50” value was 7600 µM and the “uncoupling Pi/peptide (x IC50/h)” value was 15.2 Pi/peptide (x IC50/h).
In the case of KISRHGRPTG [peptide 19 KISRHGRPTG], the “inhibition IC50” value is reported as 1060 µM and the “uncoupling Pi/peptide (x IC50/h)” value is reported as 479 Pi/peptide (x IC50/h).
SGRKSTRVHHWLLVL (not fully specified (residue 11)) [peptide 15 SGRKSTRVHHWLLVL] was tested, and the “inhibition IC50” value was 60 µM and the “uncoupling Pi/peptide (x IC50/h)” value was 6.6 Pi/peptide (x IC50/h).
In the case of KMSRHRKPGA [peptide 16 KMSRHRKPGA], the “inhibition IC50” value is reported as 100 µM and the “uncoupling Pi/peptide (x IC50/h)” value is reported as 22.2 Pi/peptide (x IC50/h).
In the case of RHRTLF [peptide 25 RHRTLF], the “inhibition IC50” value is reported as 410 µM.
RHITLF [peptide 28 RHITLF] was tested, and the “inhibition IC50” value was 1380 µM.
For MRLLKTLCFGLCG [peptide 31 MRLLKTLCFGLCG], the “inhibition IC50” value was 3500 µM.
RHWSIF [peptide 24 RHWSIF] was tested, and the “inhibition IC50” value was 400 µM.
For MSRHRN [peptide 29 MSRHRN], the “inhibition IC50” value was 760 µM and the “uncoupling Pi/peptide (x IC50/h)” value was 144 Pi/peptide (x IC50/h).
With RIHFIPRRGR [peptide 20 RIHFIPRRGR] the “inhibition IC50” value was 280 µM and the “uncoupling Pi/peptide (x IC50/h)” value was 39.6 Pi/peptide (x IC50/h).
Ac-MRLLKTLCFVGLCG (cysteine pairing not given here) [peptide 32 AcMRLLKTLCFVGLCG] was tested, and the “inhibition IC50” value was over 10000 µM.
